Assay results taken from paper PMC11543927, “Subtleties in Clathrin heavy chain binding boxes provide selectivity among adaptor proteins of budding yeast” (Nature Communications, 2024).

T1: ScChc-NTD Clathrin, Arrestin and W box mutant (Cla+Arr+W) (Saccharomyces cerevisiae, UniProt P22137 1-369, F26A | K63E | I87D | Q89A | K98E | Q155A | Q195A | I197T | K251E)
T1 construct: Clathrin heavy chain N-terminal domain, Saccharomyces cerevisiae, residues 1-369, Clathrin, Arrestin and W box mutant; also called triple mutant
T1 sequence (looked up): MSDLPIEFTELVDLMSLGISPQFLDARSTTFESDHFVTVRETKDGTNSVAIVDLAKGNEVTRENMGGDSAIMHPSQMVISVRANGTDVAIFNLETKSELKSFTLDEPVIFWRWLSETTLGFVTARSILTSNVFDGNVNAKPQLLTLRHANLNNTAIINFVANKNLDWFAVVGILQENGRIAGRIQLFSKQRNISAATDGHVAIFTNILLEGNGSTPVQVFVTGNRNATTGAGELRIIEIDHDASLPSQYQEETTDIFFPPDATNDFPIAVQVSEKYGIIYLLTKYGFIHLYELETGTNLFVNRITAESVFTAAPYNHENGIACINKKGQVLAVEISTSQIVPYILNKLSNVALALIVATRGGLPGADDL

T2: ScChc-NTD Clathrin and W box mutant (Cla+W) (Saccharomyces cerevisiae, UniProt P22137 1-369, F26A | K63E | I87D | Q89A | K98E | Q155A)
T2 construct: Clathrin heavy chain N-terminal domain, Saccharomyces cerevisiae, residues 1-369, Clathrin and W box mutant
T2 sequence (looked up): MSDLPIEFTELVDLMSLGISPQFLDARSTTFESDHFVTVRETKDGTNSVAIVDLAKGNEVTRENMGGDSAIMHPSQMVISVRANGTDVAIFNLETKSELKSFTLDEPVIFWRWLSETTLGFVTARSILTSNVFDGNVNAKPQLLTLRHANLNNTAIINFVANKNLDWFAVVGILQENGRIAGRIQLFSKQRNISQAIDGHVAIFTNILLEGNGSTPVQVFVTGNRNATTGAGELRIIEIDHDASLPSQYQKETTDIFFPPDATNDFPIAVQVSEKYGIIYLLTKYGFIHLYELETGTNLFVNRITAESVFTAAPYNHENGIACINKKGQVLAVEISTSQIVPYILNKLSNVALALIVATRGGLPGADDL

T3: ScChc-NTD W-box mutant (F26A, Q155A) (Saccharomyces cerevisiae, UniProt P22137 1-369, F26A | Q155A)
T3 construct: Clathrin heavy chain N-terminal domain, Saccharomyces cerevisiae, residues 1-369, W-box mutant; also called W mutant
T3 sequence (looked up): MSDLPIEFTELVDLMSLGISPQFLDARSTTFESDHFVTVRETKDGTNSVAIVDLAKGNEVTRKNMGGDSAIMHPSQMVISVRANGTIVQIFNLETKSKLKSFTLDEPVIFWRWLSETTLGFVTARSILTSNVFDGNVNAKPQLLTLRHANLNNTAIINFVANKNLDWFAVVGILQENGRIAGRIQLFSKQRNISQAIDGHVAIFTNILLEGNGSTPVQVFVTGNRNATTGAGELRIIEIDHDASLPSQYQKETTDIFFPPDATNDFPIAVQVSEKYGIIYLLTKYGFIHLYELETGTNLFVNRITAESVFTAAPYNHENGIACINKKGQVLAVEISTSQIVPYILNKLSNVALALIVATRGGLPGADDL


Tests used:
Experiment in all cases: nanoDSF thermal shift; ScChc-NTD mutants 10 µM with Ent1 or Ent2 peptide, thermal ramp up to 80 °C; apparent KD from the Tm shift model
Details in all cases: both partners purified
[1] = target: T1, ScChc-NTD Clathrin, Arrestin and W box …
[2] = target: T2, ScChc-NTD Clathrin and W box mutant …
[3] = target: T3, ScChc-NTD W-box mutant (F26A, Q155A)

| Binder | Kd [1] [mM] | fold decrease in binding against WT NTD [2] [fold] | binding result [3] |
| --- | --- | --- | --- |
| GYTLIDL (also called Ent1 peptide; source: synthetic peptide, bought: NovoProLabs) [Ent1 CBM peptide (GYTLIDL)] | ~3.45 | ~9 | binds |
| GVSLIDL (also called Ent2 peptide; source: synthetic peptide, bought: NovoProLabs) [Ent2 CBM peptide (GVSLIDL)] | ~1.04 | ~9 | binds |
